One assay relates to estrogen receptor (ER). As to the kind of experiment: ERE-Luc (E2-responsive) reporter transfection assay in HeLa cells. The format is cell-based, human. On the procedure:
HeLa cells were transfected using FuGENE6 (Roche) with equal molar ratios of control and plasmid DNA: 50 ng/well ER(α); 0.6 μg/well ERE-Luc, GRE-Luc, TRE-Luc, ARE-Luc, VDRE-Luc; 0.0625 μg/well pSCT or 0.08 μg/well pSCT-SRA/pSCT-SRA-SDM7a; 0.049 μg/well pCMV-FLAG-7.1 or […] FLAG-SLIRP/FLAG-SLIRP-R24/FLAG-SLIRP-L62/FLAG-SLIRP-DM; 0.3 μg/well pCMX or 0.5 μg/well pCMX-SHARP; 100 ng/well pCGN or 100 ng/well pCGN-SKIP. After transfection, cells were cultured in complete medium for 24 h, prior to the addition of E2 (10 nM), Dex (10 nM), T3 (1 nM), DHT (10 nM), VitD (100 nM), 4-hydroxytamoxifen (Tam, 1 nM), ICI182780 (ICI, 1 nM) or equal volume of vehicle (absolute ethanol or water). After 8 h, lysates were assayed for luciferase activity relative to protein levels using Luciferase (Promega) and Protein Assay (BioRad) on a FluorStar Optima (BMG).

The test system of a further assay is SRA STR7. Nature of the assay: REMSA with 32P-labeled SRA STR7 probe and recombinant proteins. The format is binding, human. As to conditions: in the presence of heparin and RNase T1. From the text: The yeast three-hybrid SLIRP cDNA clone containing the coding region and 3′ UTR, was amplified with specific primers SLIRP (sense) 5′ cgc gga tcc gcg gcc tca gca gca 3′, SLIRP (reverse) 5′ gcg cgg atc cta ggc tgc agt ctca 3′, and subcloned into BamHI cut pCMV-FLAG 7.1 for transfection assays and pGEX-6P2 for GST-fusion protein experiments. STR7 primers (sense) 5′ agg agg cag gta tgt gat gac atc agc cga cgc ctg gca ctg ctg cag gaa cag tgg gct gga gga aag ttg tca ata cct gta aag aa 3′ and (reverse) 5′ ttc ttt aca ggt aft gac aac ttt cct cca gcc cac tgt tcc tgc agc agt gcc agg cgt cgg ctg atg tca tca cat acc tgc ttc ct 3′ were annealed and cloned into EcoRV-digested pBluescript II KS+ to generate labeled riboprobes. To generate the SRA mutant SDM7, the underlined residues above were mutated to tcc, ctc and ctc as outlined previously (19). pBluescript vectors were linearized with EcoRV for transcription with T7 or T3 RNA polymerase (Invitrogen) in reactions containing [^32P]UTP (Amersham Biosciences) or unlabeled UTP, as described (16), to produce riboprobes with a specific activity of ˜2×10^9 cpm/μg RNA. Constructs for expressing mutant forms of SLIRP (R24, 25A and L62A) were prepared by PCR-based mutagenesis. Each of the mutant coding domains was subcloned into BamH1-cut pCMV-FLAG 7.1 and pGEX-6P2 as above. […]

The text below walks through data of patent US20090312245A1, “SRA binding protein” (The University of Western Australia, priority 2005, published 2009).

With “SHARP: SMRT/HDAC1 associated repressor protein, SRA corepressor, transfected expression vector [reference compound]”, the “repression of SRA-mediated coactivation of E2-responsive reporter” value with estrogen receptor (ER) (cotransfected with SRA) is “repressed SRA-mediated coactivation”.

B1: SKIP: coregulator, coactivator of ER transactivation, transfected expression vector (protein, UniProt Q13573 2-536, looked up)
SNW domain-containing protein …: ALTSFLPAPTQLSQDQLEAEEKARSQRSRQTSLVSSRREPPPYGYRKGWIPRLLEDFGDGGAFPEIHVAQYPLDMGRKKKMSNALAIQVDSEGKIKYDAIARQGQSKDKVIYSKYTDLVPKEVMNADDPDLQRPDEEAIKEITEKTRVALEKSVSQKVAAAMPVRAADKLAPAQYIRYTPSQQGVAFNSGAKQRVIRMVEMQKDPMEPPRFKINKKIPRGPPSPPAPVMHSPSRKMTVKEQQEWKIPPCISNWKNAKGYTIPLDKRLAADGRGLQTVHINENFAKLAEALYIADRKAREAVEMRAQVERKMAQKEKEKHEEKLREMAQKARERRAGIKTHVEKEDGEARERDEIRHDRRKERQHDRNLSRAAPDKRSKLQRNENRDISEVIALGVPNPRTSNEVQYDQRLFNQSKGMDSGFAGGEDEIYNVYDQAWRGGKDMAQSIYRPSKNLDKDMYGDDLEARIKTNRFVPDKEFSGSDRRQRGREGPVQFEEDPFGLDKFLEEAKQHGGSKRPSDSSRPKEHEHEGKKRRKE
Take B1: the “total increase in reporter activity” value with estrogen receptor (ER) (SKIP with cotransfected SRA) was around 6 fold. For the same molecule, the “increase of reporter activity” value in the assay with estrogen receptor (ER) (transfected SKIP alone) is given as around 2 fold.

B2: GST-SHARP-RRM: GST-SHARP fusion protein containing the three RRM domains (SHARP aas 1-608) (protein, UniProt Q96T58 1-608, looked up, fragment)
chain: MVRETRHLWVGNLPENVREEKIIEHFKRYGRVESVKILPKRGSEGGVAAFVDFVDIKSAQKAHNSVNKMGDRDLRTDYNEPGTIPSAARGLDDTVSIASRSREVSGFRGGGGGPAYGPPPSLHAREGRYERRLDGASDNRERAYEHSAYGHHERGTGGFDRTRHYDQDYYRDPRERTLQHGLYYASRSRSPNRFDAHDPRYEPRAREQFTLPSVVHRDIYRDDITREVRGRRPERNYQHSRSRSPHSSQSRNQSPQRLASQASRPTRSPSGSGSRSRSSSSDSISSSSSTSSDSSDSSSSSSDDSPARSVQSAAVPAPTSQLLSSLEKDEPRKSFGIKVQNLPVRSTDTSLKDGLFHEFKKFGKVTSVQIHGTSEERYGLVFFRQQEDQEKALTASKGKLFFGMQIEVTAWIGPETESENEFRPLDERIDEFHPKATRTLFIGNLEKTTTYHDLRNIFQRFGEIVDIDIKKVNGVPQYAFLQYCDIASVCKAIKKMDGEYLGNNRLKLGFGKSMPTNCVWLDGLSSNVSDQYLTRHFCRYGPVVKVVFDRLKGMALVLYNEIEYAQAAVKETKGRKIGGNKIKVDFANRESQLAFYHCMEKSGQDIRD
modifications: GST fusion
B2: the “binding to SRA STR7 probe” value with SRA STR7 is listed as “bound STR7 avidly”.
